From the supplement of paper PMC10567573

B1: DLC1 (parent)
chain: HVTHWMGQPFNSDDRNTACHHGLV

Variants of: B1
Test: protein stability index of a GFP-peptide fusion (GPS, HEK-293T) (PSI 1-6); higher = more stable
Settings: c terminus: a fixed tail appended
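Note: lentivirally expressed fusions sorted by FACS into six bins by GFP to DsRed ratio, PSI derived from sequencing read proportions per bin multiplied by bin number.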

Protein stability index of substitutions, site by site:
H20: Q 2.46, V 2.34, G 2.16, K 2.41, N 2.2, W 2.46, A 2.37, R 2.25, T 2.25, Y 2.16, P 2.5, C 2.25, F 2.3, M 1.79, S 2.25, D 2.36, L 1.6, I 2.13, E 2.44
V24: C 2.16, H 2.28, D 2.66, E 2.5, G 1.92, A 2.31, F 1.45
Q8: E 2.43, D 2.03, L 1.22, F 2.05, A 2.26, C 2.14, W 1.55, S 2.15, N 1.92, G 1.81, I 2.66, P 2.1, V 1.77, T 2.6, Y 1.74, R 2.15, H 2.32, M 1.28, K 2.27
C19: W 1.48, Y 1.8, S 2.41, N 2.43, D 2.68, F 1.25, H 2.13, M 2.31, V 2.04, L 2.02, G 1.96, K 2.2, A 2.5, R 2.4, I 2.4, T 2.61, Q 2.61, E 2.92, P 2.43
G7: H 1.97, E 2.63, W 3.07, Q 2.07, M 1.39, R 1.76, D 2.46, N 2.23, K 1.89, L 2.26, S 1.65, Y 1.88, F 2.45, A 2.35, V 1.84, P 2.24, C 2.02, I 2.03, T 1.91
L23: H 2.46, S 2.24, C 1.99, D 2.84, E 2.75, F 2.02, P 2.17, Y 2.07, I 1.92, R 2.47, N 2.37, A 2.51, M 2.13, K 2.27, V 2.39, G 2.49, W 1.86, Q 2.38, T 2.26
M6: Y 2.23, T 2.12, V 2.48, W 2.15
F10: R 2.79, P 2.54, Y 1.92, V 2.36, M 2.53, Q 2.5, A 2.53, S 2.35, W 1.93, K 2.78, D 3.03, I 2.04, G 2.77, L 2.01, N 2.86, C 1.94, T 2.29, E 2.75, H 2.05
S12: G 2.34, D 2.62, N 2.55, M 2.61, H 2.04, E 2.52, Y 1.78, V 1.8, P 2.29, A 2.02, F 1.85, C 1.51, W 1.92, L 2.11, T 2.02, R 2.01, K 2.51, I 2.05, Q 1.98
P9: H 2.23, C 1.75, R 2.21, M 2.38, S 2.06, F 1.43, D 1.99, A 2.36, N 2.2, T 2.29, W 1.6, E 2.3, Y 2.43, Q 2.4, V 1.55, I 1.75, L 2, K 1.9, G 1.88
N11: D 2.58, K 1.86, G 2.13, M 2.07, R 2.17, C 2.17, H 1.8, Q 2.23, T 2.02, I 1.94, P 2.3, A 2.07, S 1.69, W 3.88, L 2.14, Y 2.26, V 2.62, F 1.65, E 2.58
N16: S 1.81, I 2.13, P 1.64, H 2.43, Q 2.67, M 1.76, Y 2.32, L 1.8, W 1.3, R 2.16, G 1.97, V 1.22, T 1.99, F 1.92, A 1.75, C 2.54, D 2.35, E 2.35, K 1.98
H21: C 2.69, D 2.58, T 2.02, Y 1.85, N 2.66, L 1.93, G 2.37, Q 2.44, S 2.23, M 2.21, P 1.95, E 2.51, V 1.9, W 1.69, I 1.85, R 2.26, K 2.7, F 1.64, A 2.38
R15: H 2.06, Y 1.74, N 2.38, M 1.83, P 1.82, D 2.23, A 2.22, G 1.94, C 1.99, F 2.25, K 2.11, Q 2.01, E 2.32, S 2.4, I 1.95, T 2.31, V 2.11, L 2.29, W 1.73
D14: R 2.01, N 1.86, H 2.66, G 1.86, I 1.53, W 1.65, M 1.64, C 1.68, F 2.35, A 1.9, Q 2.31, S 1.83, T 1.99, E 1.7, P 2.16, Y 1.44, L 1.31, K 1.47, V 1.71
A18: D 2.69, F 2.24, Y 2.37, I 1.76, R 2, P 1.94, S 2.21, Q 2.47, W 1.88, L 1.56, N 2.44, G 2.06, C 1.83, M 2.11, K 1.94, H 2.25, E 2.53, V 2.33, T 2.09
D13: W 1.6, N 2.11, G 2, S 1.72, L 2.05, C 1.8, K 2.32, I 1.92, T 1.94, Y 2.26, R 1.62, A 1.48, P 2.14, E 2.07, Q 1.62, F 1.81, V 1.37, H 1.77, M 1.13
G22: Y 1.6, R 2.13, W 2.38, Q 2.1, F 1.57, K 2, T 2.1, I 1.34, P 2.05, N 1.99, S 1.93, V 1.89, M 1.96, H 1.99, L 2.23, C 2.17, D 2.29, E 2.59, A 2.49
T17: S 2.36, M 1.72, D 2.65, N 2.21, E 2.32, R 1.99, V 2.1, Y 1.86, F 2.06, K 2.01, W 1.82, Q 2.38, P 2.17, L 1.68, A 1.99, G 2.04, H 2.23, I 2.25, C 1.66
